Measurements as given in paper PMC7064778 (mBio, 2020).

B1: PyoS5_(1–196) (domain or fragment)
chain: MSNDNEVPGSMVIVAQGPDDQYAYEVPPIDSAAVAGNMFGDLIQREIYLQKNIYYPVRSIFEQGTKEKKEINKKVSDQVDGLLKQITQGKREATRQERVDVMSAVLHKMESDLEGYKKTFTKGPFIDYEKQSSLSIYEAWVKIWEKNSWEERKKYPFQQLVRDELERAVAYYKQDSLSEAVKVLRQELNKQKALKE
notes: source: E. coli BL21(DE3), purified (HisTrap HP, Superdex 200 SEC)
B2: ferric pyochelin transporter FptA (receptor)
chain: DARKDGETELPDMVISGESTSATQPPGVTTLGKVPLKPRELPQSASVIDHERLEQQNLFSLDEAMQQATGVTVQPFQLLTTAYYVRGFKVDSFELDGVPALLGNTASSPQDMAIYERVEILRGSNGLLHGTGNPAATVNLVRKRPQREFAASTTLSAGRWDRYRAEVDVGGPLSASGNVRGRAVAAYEDRDYFYDVADQGTRLLYGVTEFDLSPDTLLTVGAQYQHIDSITNMAGVPMAKDGSNLGLSRDTYLDVDWDRFKWDTYRAFGSLEQQLGGGWKGKVSAEYQEADSRLRYAGSFGAIDPQTGDGGQLMGAAYKFKSIQRSLDANLNGPVRLFGLTHELLGGVTYAQGETRQDTARFLNLPNTPVNVYRWDPHGVPRPQIGQYTSPGTTTTTQKGLYALGRIKLAEPLTLVVGGRESWWDQDTPATRFKPGRQFTPYGGLIWDFARDWSWYVSYAEVYQPQADRQTWNSEPLSPVEGKTYETGIKGELADGRLNLSLAAFRIDLENNPQEDPDHPGPPNNPFYISGGKVRSQGFELEGTGYLTPYWSLSAGYTYTSTEYLKDSQNDSGTRYSTFTPRHLLRLWSNYDLPWQDRRWSVGGGLQAQSDYSVDYRGVSMRQGGYALVNMRLGYKIDEHWTAAVNVNNLFDRTYYQSLSNPNWNNRYGEPRSFNVSLRGAF
B3: PyoS5_(1–315) (domain or fragment)
chain: MSNDNEVPGSMVIVAQGPDDQYAYEVPPIDSAAVAGNMFGDLIQREIYLQKNIYYPVRSIFEQGTKEKKEINKKVSDQVDGLLKQITQGKREATRQERVDVMSAVLHKMESDLEGYKKTFTKGPFIDYEKQSSLSIYEAWVKIWEKNSWEERKKYPFQQLVRDELERAVAYYKQDSLSEAVKVLRQELNKQKALKEKEDLSQLERDYRTRKANLEMKVQSELDQAGSALPPLVSPTPEQWLERATRLVTQAIADKKQLQTTNNTLIKNSPTPLEKQKAIYNGELLVDEIASLQARLVKLNAETTRRRTEAERKAA
notes: as for B1
B4: Pyocin S5 (natural protein)
chain: MSNDNEVPGSMVIVAQGPDDQYAYEVPPIDSAAVAGNMFGDLIQREIYLQKNIYYPVRSIFEQGTKEKKEINKKVSDQVDGLLKQITQGKREATRQERVDVMSAVLHKMESDLEGYKKTFTKGPFIDYEKQSSLSIYEAWVKIWEKNSWEERKKYPFQQLVRDELERAVAYYKQDSLSEAVKVLRQELNKQKALKEKEDLSQLERDYRTRKANLEMKVQSELDQAGSALPPLVSPTPEQWLERATRLVTQAIADKKQLQTTNNTLIKNSPTPLEKQKAIYNGELLVDEIASLQARLVKLNAETTRRRTEAERKAAEEQALQDAIKFTADFYKEVTEKFGARTSEMARQLAEGARGKNIRSSAEAIKSFEKHKDALNKKLSLKDRQAIAKAFDSLDKQMMAKSLEKFSKGFGVVGKAIDAASLYQEFKISTETGDWKPFFVKIETLAAGAAASWLVGIAFATATATPIGILGFALVMAVTGAMIDEDLLEKANNLVISI
B5: PyoS5_(1–299) (domain or fragment)
chain: MSNDNEVPGSMVIVAQGPDDQYAYEVPPIDSAAVAGNMFGDLIQREIYLQKNIYYPVRSIFEQGTKEKKEINKKVSDQVDGLLKQITQGKREATRQERVDVMSAVLHKMESDLEGYKKTFTKGPFIDYEKQSSLSIYEAWVKIWEKNSWEERKKYPFQQLVRDELERAVAYYKQDSLSEAVKVLRQELNKQKALKEKEDLSQLERDYRTRKANLEMKVQSELDQAGSALPPLVSPTPEQWLERATRLVTQAIADKKQLQTTNNTLIKNSPTPLEKQKAIYNGELLVDEIASLQARLVKL

Columns and labels:
Details in all cases: both partners purified
[1] = biological target: B2; assay: SPR
PyoS5_(1–315) Δ2–39 = biological target: T1, PyoS5_(1–315) Δ2–39 (P. aeruginosa, UniProt Q9I4Y4 1-315, Δ2–39); assay: SPR
T1 construct: source: E. coli BL21(DE3), purified (HisTrap HP, Superdex 200 SEC)

PyoS5_(1–315) Δ2–9 = biological target: T2, PyoS5_(1–315) Δ2–9 (P. aeruginosa, UniProt Q9I4Y4 1-315, Δ2–9); assay: SPR
T2 construct: source: E. coli BL21(DE3), purified (HisTrap HP, Superdex 200 SEC)

PyoS5_(1–315) Δ10–13 = biological target: T3, PyoS5_(1–315) Δ10–13 (P. aeruginosa, UniProt Q9I4Y4 1-315, Δ10–13); assay: SPR
T3 construct: source: E. coli BL21(DE3), purified (HisTrap HP, Superdex 200 SEC)

[2] = biological target: B2; assay: native MS

| Binder | Kd [1] [µM] | binding result [2] | also measured |
| --- | --- | --- | --- |
| B1 | 7.1 ± 0.7 | – | – |
| B2 | – | – | Kd (PyoS5_(1–315) Δ2–39): 14.7 ± 0.4 µM; binding result (PyoS5_(1–315) Δ2–9): binds; binding result (PyoS5_(1–315) Δ10–13): binds |
| B3 | 6.5 ± 0.4 | – | – |
| B4 | – | binds | – |
| B5 | – | binds | – |
